Measured values: patent US20090311265A1 (CRUCELL HOLLAND B V, published 2009)

B1: CR6255 (antibody, V domains shown)
VH: EVQLVESGAEVKKPGSSVKVSCKASGGPFRSYAISWVRQAPGQGPEWMGGIIPIFGTTKYAPKFQGRVTITADDFAGTVYMELSSLRSEDTAMYYCAKHMGYQVRETMDVWGKGTTVTVSS
VL: SYVLTQPPSASGTPGQRVTISCSGSTFNIGSNAVDWYRQLPGTAPKLLIYSNNQRPSGVPDRFSGSRSGTSASLAISGLQSEDEADYYCAAWDDILNVPVFGGGTKLTVLG
B2: CR6260 (antibody, V domains shown)
VH: EVQLVESGAEVKKPGSSVKVSCKASGGPFRSYAISWVRQAPGQGPEWMGGIIPIFGTTKYAPKFQGRVTITADDFAGTVYMELSSLRSEDTAMYYCAKHMGYQVRETMDVWGKGTTVTVSS
VL: SYVLTQPPSVSGTPGQRVTISCSGSRSNVGDNSVYWYQHVPEMAPKLLVYKNTQRPSGVPARFSGSKSGTSASLAIIGLQSGDEADYYCVAWDDSVDGYVFGSGTKVTVLG
B3: CR6261 (antibody, V domains shown)
VH: EVQLVESGAEVKKPGSSVKVSCKASGGPFRSYAISWVRQAPGQGPEWMGGIIPIFGTTKYAPKFQGRVTITADDFAGTVYMELSSLRSEDTAMYYCAKHMGYQVRETMDVWGKGTTVTVSS
VL: QSVLTQPPSVSAAPGQKVTISCSGSSSNIGNDYVSWYQQLPGTAPKLLIYDNNKRPSGIPDRFSGSKSGTSATLGITGLQTGDEANYYCATWDRRPTAYVVFGGGTKLTVLG
B4: CR6262 (antibody, V domains shown)
VH: QVQLQQSGAEVKKPGSSVKVSCKVSGVIFSGSAISWVRQAPGQGLEWMGGISPLFGTTNYAQKFQGRVTITADQSTNTTYMEVNSLRYEDTAVYFCARGPKYYSEYMDVWGKGTTVTVSS
VL: DIQMTQSPSSLSASVGDRVTITCRASQGISSYLAWYQQKPGKVPTLLIYDASTLRSGVPSRFSGSGSATDFTLTISSLQPEDVATYYCQRYNSAPPITFGQGTRLEIKR
B5: CR6268 (antibody, V domains shown)
VH: QVQLVQSGAEVKKPGSSVKVSCKASGGTFSSYAISWVRQAPGQGLEWMGGIMGMFGTTNYAQKFQGRVTITADEFTSAAYMELRSLRSEDTAVYYCARSSGYYPEYFQDWGQGTLVTVSS
VL: QSVLTQPPSESVSPGQTASVTCSGHKLGDKYVSWYQQKPGQSPVLLIYQDNRRPSGIPERFIGSNSGNTATLTISGTQALDEADYYCQAWDSSTAVFGGGTKLTVLG
B6: CR6310 (antibody, V domains shown)
VH: EVQLVESGAEVKKPGSSVKVSCKASGGPFRSYAISWVRQAPGQGPEWMGGIIPIFGTTKYAPKFQGRVTITADDFAGTVYMELSSLRSEDTAMYYCAKHMGYQVRETMDVWGKGTTVTVSS
VL: SYVLTQPPSVSVAPGQTARITCGGNNIGSKSVHWYQQKPGQAPVLVVYDDSDRPSGIPERFSGSNSGNTATLTISRVEAGDEADYYCQVWDSSSDHAVFGGGTQLTVLG
B7: CR6325 (antibody, V domains shown)
VH: EVQLVESGAEVKKPGSSVKVSCKASGGTFSFYSMSWVRQAPGQGLEWMGGIIPMFGTTNYAQKFQGRVTITAVESTSTAYMEVSSLRSEDTAVYYCARGDKGIYYYYMDVWGKGTTVTVSS
VL: QSALTQPASVSGSPGQSITISCTGTSSDVGGYNYVSWYQQHPGKAPKLMIYEVSNRPSGVSNRFSGSKSGNTASLTISGLQAEDEADYYCSSYTSSSTLVFGTGTKVTVLG
B8: CR6327 (antibody, V domains shown)
VH: EVQLVETGAEVKKPGSSVKVSCKASGGTFRTHAISWVRQAPGQGLEWMGGIIAIFGTANYAQKFQGRITITADESTSTAYMELSSLRSEDTAVYFCARGSGYHISTPFDNWGQGTLVTVSS
VL: SYVLTQPPSVSVAPGQTARITCGGNNIGSKGVHWYQQKPGQAPVLVVYDDSDRPSGIPERFSGSNSGNTATLTISRVEAGDEADYYCQVWDSSSDHVVFGGGTKLTVLG
B9: CR6328 (antibody, V domains shown)
VH: EVQLVESGAEVKKPGSSVKVSCKASGHIFSGYAISWVRQAPGQGLEWMGGIIPIFGTTNYAQKFQGRVTITADQSTSTAYMDLSNLRSEDTAVYYCARVKDGYCTLTSCPVGWYFDLWGRGTLVTVSS
VL: not shown
B10: CR6329 (antibody, V domains shown)
VH: EVQLVQSGAEVKKPGSSVKVSCKASGGIFRSNSISWVRQAPGQGLEWMGGIFALFGTTDYAQKFQGRVTITADESSTTVYLELSSLTSEDTAVYYCARGSGYTTRNYFDYWGQGTLVTVSS
VL: EIVLTQSPGTLSLSPGERATLSCRASQSVSSNYLGWYQQKPGQAPRLLIYGASSRASGIPDRFSGGGSGTDFTLTISRLEPEDFAVYYCQQYGSSPLTFGGGTKVEIKR
B11: CR6331 (antibody, V domains shown)
VH: EVQLVESGAEVKKPGSSVKVSCKASGGTFSSYAISWVRQAPGQGLEWMGGIIGMFGTANYAQKFQGRVTITADEFTSTAYMELSSLRSEDTAVYYCARGNYYYESSLDYWGQGTLVTVSS
VL: QSVVTQPPSVSVAPGQTARITCGGNNIGSKSVHWYQQKPGQAPVLVVYDDSDRPSGIPERFSGSNSGNTATLTISRVEAGDEADYYCQVWDSSSDHYVFGTGTKVTVLG
B12: CR6332 (antibody, V domains shown)
VH: QVQLVQSGAEVKKPGSSVKVSCKASGGPFRNFAINWVRQAPGQGLEWMGGIIAVFGTTKYAHKFQGRVTITADDSTNTAYMELGSLKSEDTAVYYCARGPHYYSSYMDVWGEGTTVTVSS
VL: DIQLTQSPSSLSASVGDRVTITCRASQGISTYLAWYQQKPGKVPKLLIYAASTLQSGVPSRFSGSGSGTDFTLTISSLQPEDVATYYCQKYNSAPSFGPGTKVDIKR
B13: CR6334 (antibody, V domains shown)
VH: EVQLVETGAEVKKPGSSVKVPCKSSGSPFRSNAVSWVRQAPGQGLEWVGGILGVFGSPSYAQKFQGRVTITADESTNTVHMELRGLRSEDTAVYYCARGPTYYYSYMDVWGKGTTVTVSS
VL: SYVLTQPPSESVAPGQTARITCGGNNIGRNSVHWYQQKPGQAPVLVVYDDSDRPSGIPERFSGSKSGNTATLIISRVEVGDEADYYCQVWHSSSDHYVFGTGTKVTVLG
B14: CR6336 (antibody, V domains shown)
VH: QMQLVQSGAEVKKPGSSVKVSCKASGGTFSSYAISWVRQAPGQGLEWMGGIFGMFGTANYAQKFQGRVTITADEFTSAAYMELSSLGSEDTAMYYCARSSGYYPQYFQDWGQGTLVTVSS
VL: EIVMTQSPGTLSLSPGQRATLSCRASQSVSSSYLAWYQQKPGQAPRLLMYGASSRATGIPDRFSGSGSGTDFTLTISRLEPEDFAVYYCQQYGSSSLTFGGGTKLEIKR

How the values were obtained:
[1] = molecular target: recombinant HA, subtype H3 (A/Wyoming/3/2003(H3N2)) (influenza A virus A/Wyoming/3/2003 …); assay: ELISA, coated HA, IgG 5 µg/ml
[2] = molecular target: recombinant HA, subtype H5 (A/Vietnam/1203/2004 (H5N1)) (influenza A virus A/Vietnam/1203/2004 …, UniProt Q80A26 6-554); assay: ELISA, coated HA, IgG 5 µg/ml
[3] = molecular target: recombinant HA, subtype H1 (A/New Caledonia/20/99 (H1N1)) (influenza A virus A/New Caledonia/20/99 …, UniProt Q289M7 18-565); assay: ELISA, coated HA, IgG 5 µg/ml
[4] = molecular target: full-length HA from isolate A/Vietnam/1194/2004 (H5N1TV) on PER.C6 cells (influenza A virus A/Vietnam/1194/2004 …, UniProt Q80A26 6-554); assay: flow cytometry, transfected PER.C6 cells

Binder	OD 492 nm [1]	OD 492 nm [2]	OD 492 nm [3]	flow cytometry signal at 0.1 µg/ml [4]	flow cytometry signal at 1 µg/ml [4]	flow cytometry signal at 10 µg/ml [4]
B1	0.08 OD 492 nm	1.44 OD 492 nm	1.91 OD 492 nm	60.4	257	414
B2	0.08 OD 492 nm	1.45 OD 492 nm	–	31.1	168	323
B3	0.07 OD 492 nm	–	–	–	–	–
B4	0.09 OD 492 nm	1.02 OD 492 nm	1.48 OD 492 nm	8.06	20.9	84.3
B5	0.08 OD 492 nm	1.3 OD 492 nm	1.78 OD 492 nm	43.7	219	422
B6	0.08 OD 492 nm	1.37 OD 492 nm	–	–	–	–
B7	0.07 OD 492 nm	–	–	–	–	–
B8	0.08 OD 492 nm	1.11 OD 492 nm	–	–	–	–
B9	0.07 OD 492 nm	1.78 OD 492 nm	2.43 OD 492 nm	–	–	–
B10	0.08 OD 492 nm	–	–	–	–	–
B11	0.06 OD 492 nm	1.32 OD 492 nm	–	–	–	–
B12	0.15 OD 492 nm	1.65 OD 492 nm	2.2 OD 492 nm	–	–	–
B13	0.07 OD 492 nm	1.19 OD 492 nm	2.04 OD 492 nm	–	–	–
B14	0.1 OD 492 nm	1.41 OD 492 nm	1.92 OD 492 nm	–	–	–
